In PMC4824355, “Translocator Protein-Mediated Stabilization of Mitochondrial Architecture during Inflammation Stress in Colonic Cells” (PLoS ONE, 2016):
“And” between values parts separate entries of the source, which are not always exact repeats. Equal values may be shown once.

Molecular target: the molecule itself
Test: SDS-PAGE and immunoblot of detergent-solubilised mitochondrial membranes; HT-29 mitochondrial membranes solubilised in SDS or 0.1% DDM, 4%-12% Tris-glycine SDS-PAGE, anti-TSPO blot; cells untreated or treated with 10 ng/mL TNF, 1 uM PK 11195 or both for 24, 48 or 72 h

B1: translocator protein (18 kDa; tryptophan-rich sensory protein oxygen sensor, TSPO) (natural protein, human (endogenous in HT-29), UniProt P30536 1-169, looked up)
chain: MAPPWVPAMGFTLAPSLGCFVGSRFVHGEGLRWYAGLQKPSWHPPHWVLGPVWGTLYSAMGYGSYLVWKELGGFTEKAVVPLGLYTGQLALNWAWPPIFFGARQMGWALVDLLLVSGAAAATTVAWYQVSPLAARLLYPYLAWLAFTTTLNYCVWRDNHGWRGGRRLPE
notes: translocator protein (18 kDa), TSPO, human, endogenous in HT-29 colon carcinoma cells; Seen as monomer, dimer and trimer bands on an anti-TSPO blot; also called peripheral-type benzodiazepine receptor; mitochondrial translocator protein; source: endogenous, HT-29 mitochondrial membranes solubilised with SDS or 0.1% DDM
stoichiometry N: 3 and 2
